The target of assay [1] is T1, recombinant Fn14-Fc (human, UniProt Q9NP84 28-77).
T1 construct: also called native Fn14; not shown: Fc region (recognised by anti-human Fc)
Kind of assay: SPR (ProteOn XPR36), mAb captured on anti-mouse IgG, Fn14-Fc analyte, bivalent analyte fit. As for the experimental part: (§1) The interaction of mouse anti-Fn14 IgG monoclonal antibodies CRCBT-06-001 and CRCBT-06-002 with recombinant Fn14-Fc was measured using the Bio-Rad ProteOn XPR36 essentially as described by Nahshol et al., (2008). Briefly, a GLM ProteOn sensor chip was activated by flowing a mixture of 0.2 M EDC and 0.05 M sulpho-NHS over the chip (150 μl at 30 μl/min for 5 minutes). Rabbit anti-mouse IgG whole molecule (Sigma M-7023) was then coupled to the chip in the vertical orientation by flowing 150 μl of a 50 μg/ml solution in 10 mM acetate buffer (pH 4.5) at 30 μl/min. The remaining coupling sites were then deactivated by flowing 150 μl of 1 M ethanolamine-HCl (pH 8.5) at 30 μl/min. Mouse anti-Fn14 IgG monoclonal antibodies were then bound to the coupled anti-mouse IgG antibody by flowing 150 μl of 100 μg/ml IgG at 25 μl/min over a single channel of the sensor chip in the horizontal direction. […] PBS Tween 20 (0.005%) alone was passed over the remaining channel. Binding sensorgrams were collected and analyzed with the ProteOn Manager 2.1 XPR36 software using the Langmuir or bivalent analyte kinetic models to fit the data and determine the affinity constant KD.
(§2) A Bio-Rad ProteOn XPR36 was used to determine the affinity of mouse monoclonal anti-Fn14 antibodies CRCBT-06-001 and CRCBT-06-002 to recombinant Fn14-Fc. It is clear that both antibodies tested display a high on-rate and a low off-rate. The ProteOn software was used to fit a curve to the sensorgram based on a mathematical model, enabling the kinetics of the interaction (ka, Kd and KD) to be calculated. A number of models can be used to fit the curves to the sensorgram, essentially the models used for each sensorgram were used as they provided the best fit, as evident by the low Chi² value obtained for the residuals.

Assay [2] concerns the target T1, recombinant Fn14-Fc. Description: SPR (ProteOn XPR36), mAb captured on anti-mouse IgG, Fn14-Fc analyte, Langmuir fit. The protocol: as §1, §2
Assay [3] deals with T2, Fn14 gene fragment RW129 on phage (human, UniProt Q9NP84 32-74).
T2 construct: not shown: M13 pIII coat protein (gene fragment library in pHENH6)
T2 sequence (Q9NP84 32-74): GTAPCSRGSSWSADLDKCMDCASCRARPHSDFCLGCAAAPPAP
Kind of assay: phage ELISA, Fn14 gene fragments on phage, CRCBT-06-001 wells versus blank wells. For orientation: ELISA stands for enzyme-linked immunosorbent assay.

Assay [4] has as its target T3, Fn14 gene fragment RW131 on phage (human, UniProt Q9NP84 23-69).
T3 construct: not shown: M13 pIII coat protein (gene fragment library in pHENH6)
T3 chain: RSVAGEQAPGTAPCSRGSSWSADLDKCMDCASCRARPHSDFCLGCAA
Described as above.

In assay [5] the target is T4, Fn14 gene fragment RW125 on phage (human, UniProt Q9NP84 31-74).
T4 construct: not shown: M13 pIII coat protein (gene fragment library in pHENH6)
The assay is described as above.

Assay [6] deals with T5, Fn14 gene fragment RW120 on phage (human, UniProt Q9NP84 31-74).
T5 construct: not shown: M13 pIII coat protein (gene fragment library in pHENH6)
The assay is described as above.

Assay [7] deals with T6, Fn14 gene fragment RW114 on phage (human, UniProt Q9NP84 31-70).
T6 construct: not shown: M13 pIII coat protein (gene fragment library in pHENH6)
T6 chain: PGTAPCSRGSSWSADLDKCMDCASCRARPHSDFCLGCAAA
The assay is described as above.

The target of assay [8] is T7, Fn14 gene fragment RW95 on phage (human, UniProt Q9NP84 37-90).
T7 construct: not shown: M13 pIII coat protein (gene fragment library in pHENH6)
T7 sequence: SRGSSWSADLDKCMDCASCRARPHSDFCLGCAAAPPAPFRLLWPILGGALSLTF
The assay is described as above.

Here are results for 2 molecules from US20200239586A1 (LA TROBE UNIVERSITY, published 2020).

What is called koff is a measure of how fast the partners let go of each other. One may read the kon as the rate constant with which the complex forms.

T1 sequence (Q9NP84 28-77): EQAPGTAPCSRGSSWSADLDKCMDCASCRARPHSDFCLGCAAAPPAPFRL

B1: CRCBT-06-002 (antibody, IgG1, V domains shown)
VH: EVKLQQSGGGLVQPGGSMKLSCVASGFTFSYYWMNWVRQSPEQGLEWIAEIRLQSNDYPTHYAESVKGRFTISRDDSKNSVYLQMNNLRPEDTGIYYCACRYADYFDHWGQGTTLTVSS
VL: DTVLTQSPASLVVSLGQRATISCRASQSVSTSDYSYIHWYQQKPGQPPKFLIKYASNRDSGVPARFSGSGSGTDFTLNIHPVEEDDTAIYYCQHSWEIPPTFGAGTKLELQR
As to B1, in assay [1], the Kd was found to be 0.935 nM, the koff came out at 1.42e-05 s⁻¹ and the kon was 15200 M⁻¹ s⁻¹.

B2: CRCBT-06-001 (antibody, IgG2b, V domains shown)
VH: QVQLQQSGGGLVQPGGSMKLSCIASGFTFSSYWMSWVRQSPEKGLEWVAEIRSKSDNYATHYAESVKGKFTISRDDSKSRFFLQMNNLRAEDTGIYYCSSTYADYFHYWGQGTDLTVSS
VL: DIVMTQTPASLAVSLGQRATISCRASQSVSTSTYSYMHWYQQKPGQPPKLLIKYASSLESGVPARFSGSGSGTDFTLNIHPVEEDDTATYYCQHSWEIPYTFGGGTKLEIKR
Regarding B2, the Kd in assay [2] turned out to be 0.768 nM. Further, the koff in assay [2] came to 1.81e-05 s⁻¹. The kon in assay [2] stood at 23600 M⁻¹ s⁻¹. In addition, the binding result is “binds” in assay [3]; “binds” in assay [4]; “binds” in assay [5]; “binds” in assay [6]; “binds” in assay [7]; “no binding” in assay [8].
